# B1: Il11: IL11R agonist (protein, UniProt P47873 22-199, looked up)
# Interleukin-11: PGPPAGSPRVSSDPRADLDSAVLLTRSLLADTRQLAAQMRDKFPADGDHSLDSLPTLAMSAGTLGSLQLPGVLTRLRVDLMSYLRHVQWLRRAGGPSLKTLEPELGALQARLERLLRRLQLLMSRLALPQAAPDQPVIPLGPPASAWGSIRAAHAILGGLHLTLDWAVRGLLLLKTRL
# B2: Nbl1: DAN family protein, NBL1 protein (Sino Biologicals, cat number 10169-H02H) (protein, UniProt P41271 17-181, looked up)
# Neuroblastoma suppressor of …: AAPPPINKLALFPDKSAWCEAKNITQIVGHSGCEAKSIQNRACLGQCFSYSVPNTFPQSTESLVHCDSCMPAQSMWEIVTLECPGHEEVPRVDKLVEKILHCSCQACGKEPSHEGLSVYVQGEDGPGSQPGTHPHPHPHPHPGGQTPEPEDPPGAPHTEEEGAED
# B3: Noggin: BMP inhibitor (protein, UniProt Q13253 28-232, looked up)
# Noggin: QHYLHIRPAPSDNLPLVDLIEHPDPIFDPKEKDLNETLLRSLLGGHYDPGFMATSPPEDRPGGGGGAAGGAEDLAELDQLLRQRPSGAMPSEIKGLEFSEGLAQGKKQRLSKKLRRKLQMWLWSQTFCPVLYAWNDLGSRFWPRYVKVGSCFSKRSCSVPEGMVCKPSKSVHLTVLRWRCQRRGGQRCGWIPIQYPIISECKCSC
# B4: Mfap5: non-canonical notch agonist (protein, UniProt Q9QZJ6 29-164, looked up)
# Microfibrillar-associated …: QRGDDVPETFTDDPNLVNDPSTDDTALADITPSTDDLAGDKNATAECRDEKFACTRLYSVHRPVRQCVHQSCFTSLRRMYIINNEICSRLVCKEHEAMKDELCRQMAGLPPRRLRRSNYFRLPPCENMNLQRPDGL
# B5: FGF10: FGF growth factor (protein, UniProt O15520 38-208, looked up)
# Fibroblast growth factor 10: QALGQDMVSPEATNSSSSSFSSPSSAGRHVRSYNHLQGDVRWRKLFSFTKYFLKIEKNGKVSGTKKENCPYSILEITSVEIGVVAVKAINSNYYLAMNKKGKLYGSKEFNNDCKLKERIEENGYNTYASFNWQHNGRQMYVALNGKGAPRRGQKTRRKNTSAHFLPMVVHS
# B6: Hb-EGF: EGFR agonist (protein, UniProt Q99075 63-148, looked up)
# Heparin-binding EGF-like …: DLQEADLDLLRVTLSSKPQALATPNKEEHGKRKKKGKGLGKKRDPCLRKYKDFCIHGECKYVKELRAPSCICHPGYHGERCHGLSL
# Legend:
# Format in all cases: cell-based, human
# [1] = tested on: forward differentiating hES culture; assay: Two stage protocol: Pan-CM 8 days then second stage medium with MG132, DAPT, forskolin, sodium propionate; transcript analysis; conditions: compared with MG132
# Procedure: As a means to optimize the differentiation of insulin producing cells a two stage protocol was used in which pluripotent cultures were incubated in the presence of Pan-CM for 8 days as a means of generating pancreatic precursors cellular population. The medium these cultures were incubated in were subsequently changed to a medium designed to enhance differentiation of a pancreatic precursor towards a beta-cell terminal fate. All second stage experiments were performed in a medium composed of DMEM/F12 containing 12 mM Glucose supplemented with 1% B27, 1% Pyruvate, 1 uM Alk5 Inh II, 500 ng/ml Noggin and 0.5 uM (1,25 OH2)-Vit D3.
# Among the compounds assayed for the ability to increase insulin production in a forward differentiating culture was the proteosomal inhibitor MG132 which we used in the previous example to stabilize Ngn3 protein. We also included the gamma secretase inhibitor DAPT, which was shown in the previous example to greatly increase beta-cell formation in the developing embryonic pancreatic explant study. We also included the short fatty acid salt sodium propionate, which acts as an agonist of short-chain fatty acid receptors. We also included the adenylyl cyclase activator forskolin. We also included the nuclear hormone receptor agonist 1,25 (OH)2)-Vit D3, which binds to, and activates the VDR protein. We also used intermediate concentrations of glucose, shown by others to increase formation of insulin producing cells from pluripotent derivatives. These compounds were used individually or in combination (as outlined in FIG. 37 panel A) to increase insulin-producing endocrine cell formation in a short term Pan-CM treated forward differentiating hES culture system.
# hES cultures = assay: Individual defined medium components added throughout stages 2 and 3 of a directed differentiation protocol, qRT-PCR and IHC; conditions: for Pdx1 relative transcript level over hES levels / FoxA2 relative transcript level over hES levels: additive throughout stage 2 and stage 3; for Pdx1 relative transcript level over hES levels: control ~2500 fold; for FoxA2 relative transcript level over hES levels: control ~75 fold
# Description: To assay the individual protein components within the cell conditioned medium defined by the microarray analysis, the individual components were included throughout stages 2 and 3 of a directed differentiation protocol. […] Panels B-G show immunohistochemical stainings for Pdx1 and Hnf1-beta for the control reaction (panel B, D and F) and the reaction performed with the addition of Hb-EGF (panels C, E and G).
# Since we have seen that the Pan-CM induced differentiation of the pluripotent culture results in an increased presence of pancreatic progenitors within forward differentiating cultures we next assayed the individual components of the cell conditioned medium as single additives throughout stage 2 and stage 3 of a directed differentiation protocol. Stage 2 and stage 3 cultures were assayed since these are the stages which normally establish pancreatic endoderm within directed differentiation protocols. An outlined schematic of the components used throughout the directed differentiation is provided in FIG. 45 panel A. Three genes were assayed throughout this series of experiments: the endodermal gene FoxA2, the early pancreatic progenitor gene Pdx1 and the endocrine progenitor gene Nkx6.1. […] The most dramatic effect noted within the genes assayed throughout this series of experiments was observed within the Pdx1 transcript levels obtained within cultures that had either Hb-EGF or FGF10 included throughout stage 2 and stage 3.
# While this series of experiments have successfully established a beneficial effect for the inclusion of a FGF ligand within throughout stages 2 and 3 of a directed differentiation protocol, it should be noted many directed differentiation protocols already currently include a either FGF10 or FGF7 within either stage 2, stage 3 or both. […] This effect may have been due to the high concentration of Activin A used within these reactions 100 ng/ml. This high concentration was chosen because it is the typical concentration used in generating endoderm during stage 1 of directed differentiation protocols, however the actual concentration present within the Pan-CM was undetermined and may have been quite lower. […] This implies that the benefit due to their presence within the directed differentiation protocol may only be detectable by assaying other pancreatic markers or assaying the directed differentiation cultures at later stages, or as in them being a supportive component in a multi-factorial additive provision, yet unable to operate to induce pancreatic fates when provided alone.
# pluripotent cultures = assay: Stage 4 administration of individual defined components in directed differentiation, RT-qPCR; conditions: component added at stage 4, 4 days
# Description: FIG. 46 (A-B)—Stage 4 administration of defined components. Pluripotent cultures were passaged onto matrigel and maintained in the presence of MEF-conditioned medium for three days before being subjected to a directed differentiation protocol. At the end of stage 3 the individual components of the cell conditioned medium were supplemented into the cultures. After 4 days RNA was extracted from the various cultures and subjected to RT-qPCR analysis for key markers.
# We next explored if there were any beneficial effects from inclusion of the individual components of the cell conditioned medium in stage 4 cultures. The individual components were assayed in a directed differentiation protocol for their ability to up regulate markers of the pancreatic truck progenitor state. […] It was noted that both Mfap5 and Nbl1 up regulated the expression of HNF6.
# Bmp4 = Bmp4 stimulus of pluripotent cells with Nbl1 or Noggin: phospho smad 1/5/8 Western/IHC, ID factor RNA; conditions: for ID2 and ID4, direct gene targets of Bmp4 signaling / Bmp4 induced phosphorylated smad 1/5/8: 24 hours; for ID2 and ID4, direct gene targets of Bmp4 signaling: RNA analysis; for Bmp4 induced phosphorylated smad 1/5/8: Western blot and IHC
# Procedure: FIG. 42 (A-C)—Nbl1 inhibits BMPs. Pluripotent cells were incubated in the presence of Bmp4 alone or in combination with Nbl1 or Noggin for 24 hours. The following day cultures were assayed for downstream targets of Bmp4 signaling. […] Note the reduced expression of the phosphorylated smads for both Nbl1 and Noggin. […] In addition the down stream activation of AFP was loss in the cultures treated with Nbl1 and Noggin.
# Our initial experiment testing the ability of a Pan-CM informed defined medium ability to replicate the direct induction of pancreatic fates relied on the use of Noggin as a BMP inhibitor. This was due to the fact that Nbl1 was not available at the time so a member of the same family of proteins was used. We obtained the NBL1 protein (Sino Biologicals, cat number 10169-H02H) and determined if Nbl1 operates as a Bmp signaling inhibitor. Pluripotent cultures were subjected to a Bmp4 stimulus in the presence and absence of either Noggin or Nbl1. […] This inhibitory effect was also observed by immunohistochemical analysis of the treated cultures and is shown in FIG. 42 panel B. In addition the direct gene targets of Bmp4 signaling, ID2 and ID4, were assayed and shown to be inhibited in the presence of Noggin or Nbl1 (FIG. 42 panel C) as was the downstream target of Afp (panel B).
Molecule,NKX6.1 expression (pluripotent cultures),PDX1 expression (pluripotent cultures),Pdx1 relative transcript level over hES levels (hES cultures),other results
CCC(=O)[O-].[Na+] [sodium propionate],,,,effects on pancreas-specific transcript levels [1]: minor in comparison
Activin A: Activin receptor agonist,positively effected,significantly up-regulated,,effect of continued incubation on the cultures (hES cultures; 100 ng/ml throughout stage 2 and 3): detrimental effect on the cultures
"Cxcl12: CXCR4 agonist, stromal cell derived factor one",,down-regulated,slight increase,
B1,positively effected,significantly up-regulated,slight increase,FoxA2 relative transcript level over hES levels (hES cultures): ~160 fold
B2,positively effected,,,"HNF6 expression (pluripotent cultures): up regulated; function on Bmp4 signaling (Bmp4): functions as a Bmp4 inhibitor; ID2 and ID4, direct gene targets of Bmp4 signaling (Bmp4): inhibited; Bmp4 induced phosphorylated smad 1/5/8 (Bmp4): failed to produce this BMP specific phosphorylation event"
B3,,,,"ID2 and ID4, direct gene targets of Bmp4 signaling (Bmp4): inhibited; Bmp4 induced phosphorylated smad 1/5/8 (Bmp4): failed to produce this BMP specific phosphorylation event"
B4,positively effected,significantly up-regulated,,HNF6 expression (pluripotent cultures): up regulated
B5,,,~8500 fold,
B6,,down-regulated,~8500 fold,FoxA2 relative transcript level over hES levels (hES cultures): ~125 fold

# From patent publication US20150368616A1, “METHODS FOR INDUCTION OF CELL FATES FROM PLURIPOTENT CELLS” (THE CLEVELAND CLINIC FOUNDATION, priority 2013, published 2015)
